Source: PMC3776556, “Crystal structures of the CPAP/STIL complex reveal its role in centriole assembly and human microcephaly” (eLife, 2013)

Assays:
[1] = SEC-MALS / dynamic light scattering of CPAP TCP domain; format: physicochemical
[2] = tested on: sas-4(RNAi) C. elegans embryos; experiment: Monopolar spindle assay after sas-4(RNAi); format: in vivo; details: second division
Description: (§1) C. elegans strains carrying single-copy sas-4 transgenes were generated using MosSCI ([Frøkjær-Jensen et al., 2008]). To render the transgenes RNAi-resistant, a 500 bp region at the 5′ end of the sas-4 genomic sequence was re-encoded. The engineered sas-4 sequence was cloned into pCFJ151 with the promoter and 3′ UTR from sas-6, as well as a C-terminal GFP tag. pCFJ151 contains homology arms that direct transposase-mediated insertion of intervening sequence into the ttTi5606 Mos1 site on Chromosome II. Transgene integration was confirmed by PCR of regions spanning each side of the insertion. The genotypes of the strains used are: unc-119(ed9)III; ltSi85[pOD1550; Psas-6::SAS-4 reencoded::GFP; cb-unc-119(+)]II for WT SAS-4; and unc-119(ed9)III; ltSi177[pOD1551; Psas-6::SAS-4(1-556) reencoded::GFP; cb-unc-119(+)]II for SAS-4^ΔTCP.
(§2) Double-stranded sas-4 RNA was generated as described ([Oegema et al., 2001]) using DNA templates prepared by PCR. For experiments to quantify monopolar spindle formation, L4 hermaphrodites were injected with dsRNA and incubated at 20°C for 40 hr prior to dissection for imaging. For lethality assays, worms were maintained at 20°C. L4 hermaphrodites were injected with dsRNA and singled 24 hr post-injection. Adult worms were removed from the plates 48 hr post-injection, and hatched larvae and unhatched embryos were counted 24 hr later. […]

[3] = tested on: sas-4(RNAi) C. elegans embryos; experiment: Embryonic viability after sas-4(RNAi); format: in vivo
Description: as §1
Double-stranded sas-4 RNA was generated as described ([Oegema et al., 2001]) using DNA templates prepared by PCR. For experiments to quantify monopolar spindle formation, L4 hermaphrodites were injected with dsRNA and incubated at 20°C for 40 hr prior to dissection for imaging. For lethality assays, worms were maintained at 20°C. L4 hermaphrodites were injected with dsRNA and singled 24 hr post-injection. Adult worms were removed from the plates 48 hr post-injection, and hatched larvae and unhatched embryos were counted 24 hr later.

[4] = tested on: centrioles in sas-4(RNAi) C. elegans embryos; experiment: Localisation of SAS-4::GFP in absence of endogenous protein; format: in vivo
Description: as §1, §2

[5] = molecular target: T1, Danio rerio CPAP^937–1124 TCP domain, WT (Danio rerio, UniProt E7FCY1 937-1124); experiment: ITC; STIL peptide in syringe titrated into CPAP TCP domain in cell; 50 mM HEPES pH 7.5, 100 mM NaCl, 25°C; single set of binding sites model, N as a variable; CPAP typically 40 μM, STIL typically 700 μM; details: both partners purified
T1 construct: remnant of the cloning and protease cleavage sites at the N-terminus; also called TCP domain of D. rerio CPAP; G-box; source: E. coli BL21 (DE3) Rosetta, purified (NiNTA, proteolytic tag cleavage, optionally size exclusion, ion exchange); not shown: His tag, N-terminal, cleaved
T1 sequence: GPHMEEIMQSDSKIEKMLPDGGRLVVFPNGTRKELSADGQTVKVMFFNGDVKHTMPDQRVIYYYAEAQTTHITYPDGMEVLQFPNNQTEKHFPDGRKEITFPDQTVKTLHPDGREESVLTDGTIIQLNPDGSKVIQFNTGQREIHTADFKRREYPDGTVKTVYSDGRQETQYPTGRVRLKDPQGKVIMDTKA

[6] = molecular target: T1, Danio rerio CPAP^937–1124 TCP domain, WT; experiment: crystal structure; D. rerio CPAP^937–1124 with D. rerio STIL^408–428, protein/peptide mixture; 100 mM Tris pH 8.5, 200 mM CaAcetate, 17% PEG-2000 MME, 19.5°C; details: both partners purified
[7] = molecular target: T2, Drosophila melanogaster DSas-4 (dCPAP) TCP domain, residues 700–901 (Drosophila melanogaster, UniProt Q9VI72 700-901); experiment: crystal structure; D. melanogaster dSTIL^1–47 fused to the N-terminus of dCPAP^700–901 on one chain; sitting drop, Morpheus screen; details: both partners purified
T2 construct: source: E. coli B834 (DE3), purified (NiNTA, proteolytic tag cleavage, size exclusion), as a fusion with dSTIL^1–47
T2 sequence (looked up): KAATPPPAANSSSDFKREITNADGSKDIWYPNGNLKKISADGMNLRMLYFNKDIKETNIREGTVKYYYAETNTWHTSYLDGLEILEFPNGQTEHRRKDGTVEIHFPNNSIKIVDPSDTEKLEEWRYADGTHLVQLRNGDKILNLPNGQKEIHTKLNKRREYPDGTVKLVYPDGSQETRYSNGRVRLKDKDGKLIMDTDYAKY

B1: CPAP^937–1124: TCP domain of Danio rerio CPAP, residues 937–1124, recombinant, GPHM at N-terminus (protein)
chain: GPHMEEIMQSDSKIEKMLPDGGRLVVFPNGTRKELSADGQTVKVMFFNGDVKHTMPDQRVIYYYAEAQTTHITYPDGMEVLQFPNNQTEKHFPDGRKEITFPDQTVKTLHPDGREESVLTDGTIIQLNPDGSKVIQFNTGQREIHTADFKRREYPDGTVKTVYSDGRQETQYPTGRVRLKDPQGKVIMDTKA
modifications: left off: His tag, N-terminal, cleaved
notes: TCP domain of Danio rerio CPAP, residues 937–1124, recombinant, GPHM at N-terminus
- oligomeric state in solution ([1]; SAXS and SEC-MALS): predominantly monomeric in solution
- molar mass (averaged across central 50% of peak) ([1]; SEC-MALS, injected at approximately 460 μM, 25 mM bis Tris pH 7.2, 100 mM NaCl, theoretical monomer 22 kDa): 23 kDa
- Rh (hydrodynamic radius) ([1]; dynamic light scattering with SEC, intermediate concentration, 25 mM bis Tris pH 7.2, 100 mM NaCl): 2.9 ± 0.15 nm

B2: SAS-4^ΔTCP::GFP: C. elegans SAS-4 (aa 1–556) with TCP domain (aa 557–808) deleted, GFP fusion (protein, UniProt P34402 1-556, looked up, fragment)
chain: MASDENIGADGEQKPSRPFLRKGQGTARFRMPRNNKTSAGAPPTSELSSASSPSINVPRFSLSNALPNSARTVDSGISNEDETRPPTTASLPMDQPSLSSSPENRLNPAPSVAEEHGHSGQHAEEEEDNDTDEVSAMPSFVPDEPSTLVNSDHELSDDALKYKNAAAEFKAFERRMDSMRSASTITTSLATPSSCAPSNSSEPPTRSTPIMNDLGVGPNNHNWPSSMQELSGISLETPQARPLGSNRINQLVRSEAQTGISLLQHHERPTVTAPLRRNDMMNSSRQNPQNGNVQDENRPEHVYDQPIHVPGSSLDRQKLEIEIRRHRNLNIQLRDTIAHLDYAEESVHTTKRQLEEKISEVNNFKKELIEEFKKCKKGVEEEFEKKFEKIKEDYDELYEKLKRDQRDLERDQKILKKGTGERNKEFTETIATLRDKLRASETKNAQYRQDIRVRDEKLKKKDEEIEKLQKDGNRLKSTLQTLEKRVKQLRTEKERDDKEKEMFAKVAMNRKTSNPVPPVLNQSVPISITSNGPSRHPSSSSLTTFRKPSTSNRERG
modifications: GFP fusion
notes: C. elegans SAS-4 (aa 1–556) with TCP domain (aa 557–808) deleted, GFP fusion
- rescue of monopolar spindle phenotype [2]: not by the ΔTCP transgene
- rescue of embryonic viability [3]: not by the ΔTCP transgene
- centriole targeting [4]: did not, and instead exhibited a diffuse accumulation in the pericentriolar material

B3: Danio rerio STIL^429–448 (peptide)
chain: GQTKRVHPLVPELSMVLDGSFEFGENLYFQ
notes: remnant of the cloning and protease cleavage sites at the N-terminus; STIL, Danio rerio, residues 429-448; remnant of the cloning and protease cleavage sites at the C-terminus; expression and purification are told for STIL^404–448; also called C-terminal region of CR2 peptide; source: E. coli C41 BL21 (DE3), purified (NiNTA, proteolytic cleavage of the His-lipoyl domains, ion exchange); not …
- Kd [5]: 540 µM
- dH [5]: -6.3 kcal/mol
- stoichiometry N [5]: 0.97

B4: Danio rerio STIL^408–428 (peptide)
chain: GSGVEDEDLSPRPSPNPHPVSQENLYFQ
notes: remnant of the cloning and protease cleavage sites at the N-terminus; remnant of the cloning and protease cleavage sites at the C-terminus; used for crystallisation only; also called STIL peptide; source: E. coli C41 BL21 (DE3), purified (NiNTA, proteolytic cleavage of the His-lipoyl domains, ion exchange); not shown: His-tagged lipoyl domain (Bacillus stearothermophilus dihydrolipoamide …)
- binding result [6]: binds

B5: SAS-4^WT::GFP: C. elegans WT SAS-4 (aa 1–808) GFP fusion, RNAi-resistant transgene (protein, UniProt P34402 1-808, looked up)
chain: MASDENIGADGEQKPSRPFLRKGQGTARFRMPRNNKTSAGAPPTSELSSASSPSINVPRFSLSNALPNSARTVDSGISNEDETRPPTTASLPMDQPSLSSSPENRLNPAPSVAEEHGHSGQHAEEEEDNDTDEVSAMPSFVPDEPSTLVNSDHELSDDALKYKNAAAEFKAFERRMDSMRSASTITTSLATPSSCAPSNSSEPPTRSTPIMNDLGVGPNNHNWPSSMQELSGISLETPQARPLGSNRINQLVRSEAQTGISLLQHHERPTVTAPLRRNDMMNSSRQNPQNGNVQDENRPEHVYDQPIHVPGSSLDRQKLEIEIRRHRNLNIQLRDTIAHLDYAEESVHTTKRQLEEKISEVNNFKKELIEEFKKCKKGVEEEFEKKFEKIKEDYDELYEKLKRDQRDLERDQKILKKGTGERNKEFTETIATLRDKLRASETKNAQYRQDIRVRDEKLKKKDEEIEKLQKDGNRLKSTLQTLEKRVKQLRTEKERDDKEKEMFAKVAMNRKTSNPVPPVLNQSVPISITSNGPSRHPSSSSLTTFRKPSTSNRERGVSWADEPNEQSLEAVPQEFLMMPVKEMPGKFGKCTIYRDSLGETSKVTDTIANGLLFEYSNGDLRWVNRQNAVNIYISAVDKTVRIDLPTYNISIIHTFQRQVEVLRPGNNITLISIKRREVRTDLIYQNGMYKTEIFNRDGRYVTKDFSNQEVSRKYNPGTHTYRDNQCRYVLVTDYNDFELVEPEFRLRWYQGDPTGLNNQYILKIIGRPECSEKTLRLEVNLSTCEGTLETAEMIGDKRRKTTLFQWKK
modifications: full-length GFP fusion
notes: C. elegans WT SAS-4 (aa 1–808) GFP fusion, RNAi-resistant transgene
- rescue of monopolar spindle phenotype [2]: fully rescued
- rescue of embryonic viability [3]: fully rescued
- centriole targeting [4]: targeted to centrioles

B6: Drosophila melanogaster Ana2 (dSTIL) residues 1–47 (domain or fragment, UniProt Q9XZ31 1-47, looked up)
chain: MFVPETEDMLPRLAPRPSAAVPMGHTNEIIGPTVPEVSILFGQPPQD
notes: Ana2 (dSTIL), Drosophila melanogaster, residues 1-47, the region equivalent to CR2; codon-optimised gene; no linker or residues left by tag cleavage are told; also called dSTIL^1–47; dSTIL peptide; not shown: His tag, N-terminal, cleaved
- binding result [7]: binds

B7: Danio rerio STIL^411–428 (peptide)
chain: GEDEDLSPRPSPNPHPVSQENLYFQ
notes: remnant of the cloning and protease cleavage sites at the N-terminus; remnant of the cloning and protease cleavage sites at the C-terminus; expression and purification are told for STIL^404–448; the same paragraph gives the extra residues of this construct; also called N-terminal region of CR2 peptide; source: E. coli C41 BL21 (DE3), purified (NiNTA, proteolytic cleavage of the His-lipoyl …)
- Kd [5]: 4 µM
- dH [5]: -11.3 kcal/mol
- stoichiometry N [5]: 0.98
